Data: article PMC5376753

B1: recombinant growth and differentiation factor 11 (GDF11) (ligand)
chain: NLGLDCDEHSSESRCCRYPLTVDFEAFGWDWIIAPKRYKANYCSGQCEYMFMQKYPHTHLVQQANPRGSAGPCCTPTKMSPINMLYFNDKQQIIYGKIPGMVVDRCGCS
B2: recombinant activin A (ligand)
chain: GLECDGKVNICCKKQFFVSFKDIGWNDWIIAPSGYHANYCEGECPSHIAGTSGSSLSFHSTVINHYRMRGHSPFANLKSCCVPTKLRPMSMLYYDDGQNIIKKDIQNMIVEECGCS

Target: activin type II B receptor (ActRIIB) (human (endogenous in HEK293T)) (UniProt Q13705)
Chain of UniProt Q13705 (Q13705 19-512): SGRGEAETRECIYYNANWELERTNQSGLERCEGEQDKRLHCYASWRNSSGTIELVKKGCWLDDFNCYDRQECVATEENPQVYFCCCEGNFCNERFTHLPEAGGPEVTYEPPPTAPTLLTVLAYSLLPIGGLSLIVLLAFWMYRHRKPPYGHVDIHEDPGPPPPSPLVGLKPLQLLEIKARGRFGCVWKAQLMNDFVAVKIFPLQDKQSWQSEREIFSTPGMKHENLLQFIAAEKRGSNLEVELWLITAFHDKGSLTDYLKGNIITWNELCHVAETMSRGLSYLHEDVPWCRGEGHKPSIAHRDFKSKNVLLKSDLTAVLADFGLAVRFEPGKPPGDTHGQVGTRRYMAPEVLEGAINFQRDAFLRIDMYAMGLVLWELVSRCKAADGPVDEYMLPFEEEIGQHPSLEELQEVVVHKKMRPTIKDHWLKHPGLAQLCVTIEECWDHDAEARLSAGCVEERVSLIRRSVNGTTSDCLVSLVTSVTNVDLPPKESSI

p-SMAD2/3 AlphaLISA response of HEK293T cells after 1 h of ligand; potency of the ligand with 100 nM anti-ActRIIB (murinized BYM338) applied overnight against 0 nM antibody [fold]	Molecule
> 100	recombinant myostatin (Mstn) (from UniProt O14793 267-375) (ligand)
100	B1
> 100	B2
